T1: FcRL4, overexpressed on 3T3 cells (UniProt Q96PJ5 20-515, limits assumed)
T1 construct: whole, on cells
T1 sequence (looked up): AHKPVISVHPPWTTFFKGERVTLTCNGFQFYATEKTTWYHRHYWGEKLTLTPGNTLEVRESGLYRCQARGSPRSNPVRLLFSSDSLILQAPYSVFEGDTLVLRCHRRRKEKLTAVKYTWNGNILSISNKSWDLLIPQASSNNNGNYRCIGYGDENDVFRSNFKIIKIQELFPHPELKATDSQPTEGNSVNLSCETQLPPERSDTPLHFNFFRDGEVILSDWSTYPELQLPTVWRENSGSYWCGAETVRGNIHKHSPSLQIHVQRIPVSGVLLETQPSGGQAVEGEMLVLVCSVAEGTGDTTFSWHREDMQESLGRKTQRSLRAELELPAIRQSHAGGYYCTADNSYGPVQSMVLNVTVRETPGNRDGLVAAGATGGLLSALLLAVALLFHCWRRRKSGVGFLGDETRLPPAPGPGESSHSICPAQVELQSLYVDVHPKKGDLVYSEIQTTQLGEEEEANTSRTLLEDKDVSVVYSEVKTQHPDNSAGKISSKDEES

T2: FcRL6, overexpressed on 3T3 cells (UniProt Q6DN72 20-434, limits assumed)
T2 construct: whole, on cells
T2 sequence (looked up): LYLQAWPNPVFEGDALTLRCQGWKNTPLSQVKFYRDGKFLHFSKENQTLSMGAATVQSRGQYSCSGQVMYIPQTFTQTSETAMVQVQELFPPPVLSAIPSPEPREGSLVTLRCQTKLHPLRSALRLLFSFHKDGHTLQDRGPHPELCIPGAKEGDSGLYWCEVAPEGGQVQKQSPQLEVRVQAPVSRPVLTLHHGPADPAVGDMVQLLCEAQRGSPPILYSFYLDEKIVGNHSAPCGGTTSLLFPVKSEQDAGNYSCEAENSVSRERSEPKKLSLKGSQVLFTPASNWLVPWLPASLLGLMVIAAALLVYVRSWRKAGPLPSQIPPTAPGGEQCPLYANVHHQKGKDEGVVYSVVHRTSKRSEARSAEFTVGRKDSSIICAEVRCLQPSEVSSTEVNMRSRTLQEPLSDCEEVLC

T3: FcRL2, overexpressed on 3T3 cells (UniProt Q96LA5 20-508, limits assumed)
T3 construct: whole, on cells
T3 sequence (looked up): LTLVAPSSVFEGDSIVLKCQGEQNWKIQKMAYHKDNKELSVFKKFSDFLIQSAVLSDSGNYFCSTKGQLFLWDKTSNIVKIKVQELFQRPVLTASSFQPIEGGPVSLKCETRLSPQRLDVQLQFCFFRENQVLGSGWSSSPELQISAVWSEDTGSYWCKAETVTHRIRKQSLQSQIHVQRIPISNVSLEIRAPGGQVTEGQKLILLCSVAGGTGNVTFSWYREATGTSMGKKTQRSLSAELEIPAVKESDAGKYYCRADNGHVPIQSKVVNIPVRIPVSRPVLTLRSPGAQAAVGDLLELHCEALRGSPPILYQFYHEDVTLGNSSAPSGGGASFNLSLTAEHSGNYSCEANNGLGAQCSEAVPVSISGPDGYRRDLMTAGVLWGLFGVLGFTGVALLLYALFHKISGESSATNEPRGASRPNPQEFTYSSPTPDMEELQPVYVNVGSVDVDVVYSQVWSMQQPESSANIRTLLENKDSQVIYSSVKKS

T4: Fc Receptor-like 5 (FcRL5), full length, overexpressed on 3T3 or Raji cells (human, UniProt Q96RD9 16-977)
T4 construct: also called 3T3-FcRL5
T4 sequence: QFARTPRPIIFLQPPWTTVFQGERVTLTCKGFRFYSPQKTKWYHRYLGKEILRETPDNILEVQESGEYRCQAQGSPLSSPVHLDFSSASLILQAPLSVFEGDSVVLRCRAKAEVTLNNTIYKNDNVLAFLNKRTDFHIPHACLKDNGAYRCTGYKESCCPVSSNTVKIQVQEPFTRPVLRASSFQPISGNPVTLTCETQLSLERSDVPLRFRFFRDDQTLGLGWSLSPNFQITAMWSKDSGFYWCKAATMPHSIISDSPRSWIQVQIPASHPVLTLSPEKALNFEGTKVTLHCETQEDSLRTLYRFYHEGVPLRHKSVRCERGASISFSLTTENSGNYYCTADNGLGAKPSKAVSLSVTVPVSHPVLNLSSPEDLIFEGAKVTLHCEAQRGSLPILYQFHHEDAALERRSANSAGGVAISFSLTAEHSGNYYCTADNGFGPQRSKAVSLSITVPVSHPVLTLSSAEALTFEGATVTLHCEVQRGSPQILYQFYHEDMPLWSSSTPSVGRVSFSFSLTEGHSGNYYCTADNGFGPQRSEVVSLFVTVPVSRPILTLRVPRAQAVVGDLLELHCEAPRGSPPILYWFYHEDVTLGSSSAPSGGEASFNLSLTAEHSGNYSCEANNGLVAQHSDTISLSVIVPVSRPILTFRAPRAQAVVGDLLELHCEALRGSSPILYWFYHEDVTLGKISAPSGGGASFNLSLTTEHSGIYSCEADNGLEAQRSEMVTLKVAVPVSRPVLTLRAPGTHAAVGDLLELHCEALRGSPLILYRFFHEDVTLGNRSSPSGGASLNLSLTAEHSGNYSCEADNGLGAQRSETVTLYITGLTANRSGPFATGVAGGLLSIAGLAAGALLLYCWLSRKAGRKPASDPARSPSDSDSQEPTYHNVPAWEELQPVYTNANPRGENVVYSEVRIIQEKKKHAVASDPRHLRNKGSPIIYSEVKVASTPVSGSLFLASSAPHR


How the values were obtained:
[1] = molecular target: T1, FcRL4, overexpressed on 3T3 cells; test: phage clone on 3T3-FcRL4 cells
[2] = molecular target: T2, FcRL6, overexpressed on 3T3 cells; test: phage clone on 3T3-FcRL6 cells
[3] = molecular target: SLAMF9 protein (UniProt Q96A28 19-236, limits assumed); test: phage clone on SLAMF9 protein
SLAMF9 protein, sequence (Q96A28 19-236 limits assumed): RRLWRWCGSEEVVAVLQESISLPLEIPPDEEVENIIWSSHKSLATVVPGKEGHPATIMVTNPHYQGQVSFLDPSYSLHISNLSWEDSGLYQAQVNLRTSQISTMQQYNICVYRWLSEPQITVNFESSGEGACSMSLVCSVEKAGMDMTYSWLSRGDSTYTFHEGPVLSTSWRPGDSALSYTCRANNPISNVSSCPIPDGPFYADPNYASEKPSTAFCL

[4] = molecular target: T3, FcRL2, overexpressed on 3T3 cells; test: phage clone on 3T3-FcRL2 cells
[5] = molecular target: T4, Fc Receptor-like 5 (FcRL5), full …; test: phage clone screening on cells
Protocol: Once selected, positive scFv clones are further tested for their binding to FcRL5 (e.g., human FcRL5) on live 3T3 cell surfaces by flow cytometry. Briefly, phage clones are incubated with 3T3 cells over-expressing FcRL5. The cells are washed and then incubated with a mouse anti-M13 coat protein mAb. Cells are washed again and labeled with a PE-horse anti-mouse Ig prior to flow cytometry.
Phage′ display against FcRL5 was performed to enrich for scFv phage clones that bind to FcRL5 specifically. Screening was carried out on FcRL5 overexpressing 3T3 cells or 3T3 cells expressing FcRL1, 2, 3, 4 or 6 as a negative control (FIG. 2).

Binder | binding result [1] | binding result [2] | binding result [3] | binding result [4] | binding result [5]
ET200-028 (scFv, screened as phage clone; entry is VL-linker-VH-His tag-HA tag) scFv: QSVLTQPPAASGTPGQRVTISCSGGVSNIGSGALNWYQQLPGTAPKLLIYSYNQRPSGVSDRFSGSRSATSASLAISGLQSEDEADYYCATWDDSVNGWVFGGGTKLTVLGSRGGGGSGGGGSGGGGSLEMAQVQLVQSGAEVKKPGDSVKVSCKPSGYNFLNYGINWVRQAPGQGLEWMGWISTYTGNTNYAQKLQGRVTFTTDTSTSTAYMEMRSLRSDDTAVYYCARDLYYYEGVDYWGQGTLVTVSSTSGQAGQHHHHHHGAYPYDVPDYAS | no binding | no binding | no binding | no binding | binds
ET200-032 (scFv, screened as phage clone; entry is VL-linker-VH-His tag-HA tag) scFv: LPVLTQPPSASGTPGQRVTISCSGSSSNVGSYTVNWYRQLPGTAPTLLIYNNNQRPSGVPDRFSDSKSGTSASLTISGLQPEDEADYYCAAWDDRLGGYVFGTGTKVTVLGSRGGGGSGGGGSGGGGSLEMAEVQLVQSGAEVKKPGESLKISCKGSGYSFTNYWIGWVRQMPGKGLEWMGIIYPGDSDTRYSPSFQGQVTISADKSISTAYLQWSSLKASDTAMYYCARSTGSSHMSDEWGQGTLVTVSSTSGQAGQHHHHHHGAYPYDVPDYAS | no binding | no binding | no binding | no binding | binds
ET200-031 (scFv, screened as phage clone; entry is VL-linker-VH-His tag-HA tag; also called ET200-31) scFv: SYVLTQPPSVSVAPGKTARITCGGNNIGSKSVHWYQQKPGQAPVLVIYYDSDRPSGIPERFSGSNSGNTATLTISRVEAGDEADYYCQVWDSSSDYVFGTGTKVTVLGSRGGGGSGGGGSGGGGSLEMAEVQLVETGGGLVKPGGSLRLSCAASGFTVSDYYMSWIRQAPGKGLEWISYISGSGNSIYYADSVKGRFTISRDNAKNSLDLQMTSLRAEDTAVYYCARSTKFDYWGQGTLVTVSSTSGQAGQHHHHHHGAYPYDVPDYAS | no binding | no binding | no binding | no binding | binds
ET200-002 (scFv, screened as phage clone; entry is VL-linker-VH-His tag-HA tag) scFv: NFMLTQPHSVSESPGKTVTISCTRSSGSIASNYVQWYQQRPGSAPTTVIYEDNQRPSGVPDRFSGSIDSSSNSASLTISGLKTEDEADYYCQSYDSSNSVVFGGGTKLTVLGSRGGGGSGGGGSGGGGSLEMAQVQLVQSGTEVKKPGASVRVACKASGYPFNKYDINWVRQAPGQGLEWMGGIIPIFRTTNYAQKFQGRVTITADESTSTAYMELSSLRSEDTAVYYCAREWFYWDIWGQGTLVTVSSTSGQAGQHHHHHHGAYPYDVPDYAS | no binding | no binding | no binding | no binding | binds
ET200-030 (scFv, screened as phage clone; entry is VL-linker-VH-His tag-HA tag) scFv: QSVVTQPPSVSGAPGQRVTISCTGSSSNIGAGYDVNWYQQFPGTAPKLLIYGNSNRPSGVPDRFSGSKSGTSASLAITGLQAEDEADYYCQSYDSSLSGSYVFGTGTKVTVLGSRGGGGSGGGGSGGGGSLEMAQMQLVQSGAEVKKPGASVKVSCKASGYTLTELSMHWVRQAPGKGLEWMGGFDPEDGETIYAQKFQGRVTMTEDTSTDTAYMELSSLRSEDTAVYYCARMSSMYYDWGQGTLVTVSSTSGQAGQHHHHHHGAYPYDVPDYAS | no binding | no binding | no binding | no binding | binds
ET200-029 (scFv, screened as phage clone; entry is VL-linker-VH-His tag-HA tag) scFv: QAVLTQPPSVSVAPGKTARVTCGGNNIGSESVHWYQQKPGQAPVLVIYYDTDRPSGIPERFSGSHSGTTATLTISRVEAGDEADYYCQVWDSSRDHVVFGGGTKLTVLGSRGGGGSGGGGSGGGGSLEMAQVQLVQSGGGVVQPGRSLRLSCAASGFTFSSYAMHWVRQAPGKGLEWVAVISYDGSNKYYADSVKGLFTISRDNSKNTLYLQMNSLRAEDTAVYYCARSYFTSGFYDYWGQGTLVTVSSTSGQAGQHHHHHHGAYPYDVPDYAS | no binding | no binding | no binding | no binding | binds

Source: patent US20210388081A1 (Memorial Sloan Kettering, published 2021)
